# B1: DVL3 (parent)
# chain: FPELGYSYGGGSASSQHSEGSRSS
# Variants of: B1
# Experiment: protein stability index of a GFP-peptide fusion (GPS, HEK-293T) (PSI 1-6); higher = more stable
# Settings: c terminus: a fixed tail appended
# 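Further: lentivirally expressed fusions sorted by FACS into six bins by GFP to DsRed ratio, PSI derived from sequencing read proportions per bin multiplied by bin number.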
row,Variant,protein stability index
1,FPELGYSYGGGSASSQHEEGSRSS,3.5
2,FPELGYSYGGGSASSQHREGSRSS,2.97
3,FPELGYSYGGGSASSQHTEGSRSS,3.3
4,FPELGYSYGGGSASSQHIEGSRSS,2.73
5,FPELGYSYGGGSASSQHYEGSRSS,2.9
6,FPELGYSYGGGSASSQHGEGSRSS,3.12
7,FPELGYSYGGGSASSQHFEGSRSS,2.77
8,FPELGYSYGGGSASSQHDEGSRSS,3.7
9,FPELGYSYGGGSASSQHQEGSRSS,3.15
10,FPELGYSYGGGSASSQHNEGSRSS,2.89
11,FPELGYSYGGGSASSQHPEGSRSS,3.24
12,FPELGYSYGGGSASSQHCEGSRSS,2.9
13,FPELGYSYGGGSASSQHLEGSRSS,2.86
14,FPELGYSYGGGSASSQHMEGSRSS,2.76
15,FPELGYSYGGGSASSQHVEGSRSS,3.36
16,FPELGYSYGGGSASSQHWEGSRSS,2.2
17,FPELGYSYGGGSASSQHAEGSRSS,3.19
18,FPELGYSYGGGSASSQHHEGSRSS,2.95
19,FPELGYSYGGGSASSQHSEGSRNS,2.91
20,FPELGYSYGGGSASSQHSEGSRPS,3.23
21,FPELGYSYGGGSASSQHSEGSRWS,2.59
22,FPELGYSYGGGSASSQHSEGSRMS,2.33
23,FPELGYSYGGGSASSQHSEGSRFS,2.39
24,FPELGYSYGGGSASSQHSEGSRYS,2.49

row,Variant,protein stability index
1,FPELGYSYGGGSASSQHSEGSRHS,3.33
2,FPELGYSYGGGSASSQHSEGSRLS,2.49
3,FPELGYSYGGGSASSQHSEGSRTS,2.46
4,FPELGYSYGGGSASSQHSEGSRDS,3.17
5,FPELGYSYGGGSASSQHSEGSRKS,3.05
6,FPELGYSYGGGSASSQHSEGSRGS,3.26
7,FPELGYSYGGGSASSQHSEGSRVS,2.63
8,FPELGYSYGGGSASSQHSEGSRCS,3.38
9,FPELGYSYGGGSASSQHSEGSRQS,3.24
10,FPELGYSYGGGSASSQHSEGSRAS,2.97
11,FPELGYSYGGGSASSQHSEGSRIS,3.34
12,FPELGYSYGGGSASSQHSEGSRRS,3.05
13,FPELGYSYGGGSASSQHSEGSRES,2.9
14,FPELGYSYGGGSASSQHSEGSRSL,2.94
15,FPELGYSYGGGSASSQHSEGSRSM,2.97
16,FPELGYSYGGGSASSQHSEGSRSV,2.34
17,FPELGYSYGGGSASSQHSEGSRSA,3.5
18,FPELGYSYGGGSASSQHSEGSRST,2.92
19,FPELGYSYGGGSASSQHSEGSRSC,2.99
20,FPELGYSYGGGSASSQHSEGSRSD,3.24
21,FPELGYSYGGGSASSQHSEGSRSF,2.57
22,FPELGYSYGGGSASSQHSEGSRSQ,3.01
23,FPELGYSYGGGSASSQHSEGSRSR,3.69
24,FPELGYSYGGGSASSQHSEGSRSI,2.37

row,Variant,protein stability index
1,FPELGYSYGGGSASSQHSEGSRSW,1.95
2,FPELGYSYGGGSASSQHSEGSRSP,3.93
3,FPELGYSYGGGSASSQHSEGSRSN,3.56
4,FPELGYSYGGGSASSQHSEGSRSE,4.02
5,FPELGYSYGGGSASSQHSEGSRSK,3.42
6,FPELGYSYGGGSASSQHSEGSRSH,3
7,FPELGYSYGGGSASSQHSEGSRSG,3.01
8,FPELGYSYGGGSASSQHSEGSRSY,2.58
9,FPELGYSYGGGSASSQHSEGSNSS,3.56
10,FPELGYSYGGGSASSQHSEGSWSS,2.88
11,FPELGYSYGGGSASSQHSEGSFSS,2.79
12,FPELGYSYGGGSASSQHSEGSHSS,3.24
13,FPELGYSYGGGSASSQHSEGSLSS,2.53
14,FPELGYSYGGGSASSQHSEGSYSS,3.21
15,FPELGYSYGGGSASSQHSEGSGSS,3.53
16,FPELGYSYGGGSASSQHSEGSKSS,3.15
17,FPELGYSYGGGSASSQHSEGSCSS,3.41
18,FPELGYSYGGGSASSQHSEGSTSS,2.6
19,FPELGYSYGGGSASSQHSEGSASS,3.41
20,FPELGYSYGGGSASSQHSEGSESS,3.71
21,FPELGYSYGGGSASSQHSEGSVSS,3.18
22,FPELGYSYGGGSASSQHSEGSISS,3.43
23,FPELGYSYGGGSASSQHSEGSQSS,2.92
24,FPELGYSYGGGSASSQHSEGSSSS,3.66

row,Variant,protein stability index
1,FPELGYSYGGGSASSQHSEGSDSS,3.42
2,FPELGYSYGGGSASSQHSEGSPSS,3.59
3,FPELGYSYGGGSASSQHSEGSMSS,3.4
4,FPELGYSYGGGSASSQHSEGERSS,3
5,FPELGYSYGGGSASSQHSEGKRSS,3.17
6,FPELGYSYGGGSASSQHSEGQRSS,3.41
7,FPELGYSYGGGSASSQHSEGYRSS,2.88
8,FPELGYSYGGGSASSQHSEGCRSS,3.3
9,FPELGYSYGGGSASSQHSEGMRSS,2.78
10,FPELGYSYGGGSASSQHSEGPRSS,3.43
11,FPELGYSYGGGSASSQHSEGRRSS,2.62
12,FPELGYSYGGGSASSQHSEGIRSS,2.83
13,FPELGYSYGGGSASSQHSEGARSS,2.94
14,FPELGYSYGGGSASSQHSEGNRSS,2.91
15,FPELGYSYGGGSASSQHSEGHRSS,2.94
16,FPELGYSYGGGSASSQHSEGFRSS,2.56
17,FPELGYSYGGGSASSQHSEGVRSS,3.07
18,FPELGYSYGGGSASSQHSEGTRSS,3.24
19,FPELGYSYGGGSASSQHSEGLRSS,2.61
20,FPELGYSYGGGSASSQHSEGWRSS,2.29
21,FPELGYSYGGGSASSQHSEGDRSS,2.87
22,FPELGYSYGGGSASSQHSEGGRSS,2.71

# Reference: the supplement of paper PMC10567573
